Paper PMC5352144, “Deacetylation of sialic acid by esterases potentiates pneumococcal neuraminidase activity for mucin utilization, colonization and virulence” (PLoS Pathogens, 2017)

Tested on: CC(=O)Oc1ccc([N+](=O)[O-])cc1
Assay: purified protein
Conditions: pH 7.5

Substance: Axe (Streptococcus pneumoniae D39)
- Km: 4.4 ± 0.58 mM
